Data: patent US20070027086A1

What was measured:
[1] = molecular target: human MC4-receptor (human) (UniProt P32245); assay: competition with [^125I]NDP-MSH on COS cells expressing human MC4 receptor; Ki by Cheng-Prusoff
[2] = molecular target: human MC5-receptor (human) (UniProt P33032); assay: ratio of Ki values, competition with [^125I]NDP-MSH on COS-1 cells expressing human MC receptors
[3] = molecular target: human MC4-receptor (human) (UniProt P32245); assay: as above
[4] = molecular target: human MC5-receptor (human) (UniProt P33032); assay: competition with [^125I]NDP-MSH on COS cells expressing human MC5 receptor; Ki by Cheng-Prusoff

Chain of human MC4-receptor (human) (P32245 whole entry): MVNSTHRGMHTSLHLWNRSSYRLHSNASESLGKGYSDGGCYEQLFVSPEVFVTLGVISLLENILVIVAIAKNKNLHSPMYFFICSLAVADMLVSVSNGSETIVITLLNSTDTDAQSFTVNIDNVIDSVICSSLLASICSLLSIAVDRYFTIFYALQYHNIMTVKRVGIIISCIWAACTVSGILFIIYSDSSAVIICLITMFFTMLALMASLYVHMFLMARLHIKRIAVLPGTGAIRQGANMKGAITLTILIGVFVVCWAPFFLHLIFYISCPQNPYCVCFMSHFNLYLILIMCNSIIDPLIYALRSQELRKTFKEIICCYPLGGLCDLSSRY
Chain of human MC5-receptor (human) (P33032 whole entry): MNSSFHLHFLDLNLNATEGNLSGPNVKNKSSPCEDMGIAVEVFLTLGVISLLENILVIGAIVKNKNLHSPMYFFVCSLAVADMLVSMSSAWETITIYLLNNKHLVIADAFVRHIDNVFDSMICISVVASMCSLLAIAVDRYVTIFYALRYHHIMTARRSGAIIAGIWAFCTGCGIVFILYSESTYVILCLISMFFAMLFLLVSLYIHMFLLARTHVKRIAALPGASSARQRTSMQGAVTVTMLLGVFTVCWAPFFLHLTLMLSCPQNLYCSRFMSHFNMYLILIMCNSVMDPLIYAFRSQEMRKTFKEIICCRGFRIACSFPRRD

Ki [1]: > 50 µM
fold lower affinity than for the MC1-receptor [2]: > 65000 fold
fold lower affinity than for the MC1-receptor [3]: > 65000 fold
Ki [4]: > 50 µM
Substance: MS05 (Ser-Ser-Ile-Ile-Ser-His-Phe-Arg-Trp-Gly-Lys-Pro-Val-NH2) (peptide)
